For orientation: stoichiometry N means the number of molecules, sites or subunits per partner or assembly.

For data set [1], the target named is HPV68 L1 (0–505 aa), wild-type L1-only virus-like particle (human papillomavirus type 68). Put plainly: cryo-EM structure; VLPs (~2.0 mg/mL) vitrified on Quantifoil grids; icosahedral 3D reconstruction (AUTO3DEM or cisTEM).
Data set [2] deals with the molecule itself. The data set is described as above.

On to “HPV68 L1 (0–505 aa), wild-type L1-only virus-like particle (natural protein)”, for which the stoichiometry N in data set [1] was 72 pentamers.

B1: HPV39 L1 (15–505 aa), wild-type L1-only virus-like particle (domain or fragment)
chain: PPSVAKVVNTDDYVTRTGIYYYAGSSRLLTVGHPYFKVGMNGGRKQDIPKVSAYQYRVFRVTLPDPNKFSIPDASLYNPETQRLVWACVGVEVGRGQPLGVGISGHPLYNRQDDTENSPFSSTTNKDSRDNVSVDYKQTQLCIIGCVPAIGEHWGKGKACKPNNVSTGDCPPLELVNTPIEDGDMIDTGYGAMDFGALQETKSEVPLDICQSICKYPDYLQMSADVYGDSMFFCLRREQLFARHFWNRGGMVGDAIPAQLYIKGTDIRANPGSSVYCPSPSGSMVTSDSQLFNKPYWLHKAQGHNNGICWHNQLFLTVVDTTRSTNFTLSTSIESSIPSTYDPSKFKEYTRHVEEYDLQFIFQLCTVTLTTDVMSYIHTMNSSILDNWNFAVAPPPSASLVDTYRYLQSAAITCQKDAPAPEKKDPYDGLKFWNVDLREKFSLELDQFPLGRKFLLQARVRRRPTIGPRKRPAASTSSSSATKHKRKRVSK
notes: Major capsid protein L1 of human papillomavirus type 39, residues 15-505 as printed; chosen from full-length and 5-, 10-, 15-aa N-terminal truncations; Non-fusion expression, no tag; Copies: 72 pentamers (T = 7 capsid) as printed, i.e. 360 chains; also called WT HPV39; HPV39 VLP; source: E. coli ER2566 (pTO-T7), purified (SP or XS sepharose; self-assembly on removal of DTT, Superdex 200); copies: …
Regarding B1, in data set [2], the “stoichiometry N” value is 72 pentamers.

B2: HPV70 L1 (10–506 aa), wild-type L1-only virus-like particle (domain or fragment, human papillomavirus type 70, UniProt P50793 10-504, looked up)
chain: TVYLPPPSVAKVVNTDDYVTRTGIYYYAGSSRLLTVGHPYFKVPVNGGRKQEIPKVSAYQYRVFRVSLPDPNKFGLPDPSLYNPDTQRLVWACIGVEIGRGQPLGVGVSGHPLYNRLDDTENSHFSSAVSTQDSRDNVSVDYKQTQLCIIGCVPAMGEHWAKGKACKSTQQGDCPPLELVNTAIEDGDMIDTGYGAMDFRTLQETKSEVPLDICQSVCKYPDYLQMSADVYGDSMFFCLRKEQLFARHFWNRGGMVGDTIPSELYIKGTDIRERPGTHVYSPSPSGSMVSSDSQLFNKPYWLHKAQGHNNGICWHNQLFITVVDTTRSTNFTLSACTETAIPAVYSPTKFKEYTRHVEEYDLQFIFQLCTITLTADVMAYIHTMNPAILDNWNIGVTPPPSASLVDTYRYLQSAAIACQKDAPTPEKKDPYDDLKFWNVDLKEKFSTELDQFPLGRKFLLQVGARRRPTIGPRKRPASAKSSSSASKHKRKRVSK
notes: Major capsid protein L1 of human papillomavirus type 70, residues 10-506 as printed; chosen from full-length and 5-, 10-, 15-aa N-terminal truncations; Non-fusion expression, no tag; Copies: 72 pentamers (T = 7 capsid) as printed, i.e. 360 chains; also called WT HPV70; HPV70 VLP; source: E. coli ER2566 (pTO-T7), purified (SP or XS sepharose; self-assembly on removal of DTT, Superdex 200); copies: …
Turning to B2, in data set [2], the “stoichiometry N” value was 72 pentamers.
